Experimental data: patent US20200360469A1 (published 2020)

Biological target: full-length (FL) BRAF^WT, 6x-HIS-BRAF-WT/FLAG (human, UniProt P15056 2-766)
Experiment: kinase activity inhibition (ELISA); with 0.1 nM Dabrafenib

Sequence of full-length (FL) BRAF^WT, 6x-HIS-BRAF-WT/FLAG (P15056 2-766): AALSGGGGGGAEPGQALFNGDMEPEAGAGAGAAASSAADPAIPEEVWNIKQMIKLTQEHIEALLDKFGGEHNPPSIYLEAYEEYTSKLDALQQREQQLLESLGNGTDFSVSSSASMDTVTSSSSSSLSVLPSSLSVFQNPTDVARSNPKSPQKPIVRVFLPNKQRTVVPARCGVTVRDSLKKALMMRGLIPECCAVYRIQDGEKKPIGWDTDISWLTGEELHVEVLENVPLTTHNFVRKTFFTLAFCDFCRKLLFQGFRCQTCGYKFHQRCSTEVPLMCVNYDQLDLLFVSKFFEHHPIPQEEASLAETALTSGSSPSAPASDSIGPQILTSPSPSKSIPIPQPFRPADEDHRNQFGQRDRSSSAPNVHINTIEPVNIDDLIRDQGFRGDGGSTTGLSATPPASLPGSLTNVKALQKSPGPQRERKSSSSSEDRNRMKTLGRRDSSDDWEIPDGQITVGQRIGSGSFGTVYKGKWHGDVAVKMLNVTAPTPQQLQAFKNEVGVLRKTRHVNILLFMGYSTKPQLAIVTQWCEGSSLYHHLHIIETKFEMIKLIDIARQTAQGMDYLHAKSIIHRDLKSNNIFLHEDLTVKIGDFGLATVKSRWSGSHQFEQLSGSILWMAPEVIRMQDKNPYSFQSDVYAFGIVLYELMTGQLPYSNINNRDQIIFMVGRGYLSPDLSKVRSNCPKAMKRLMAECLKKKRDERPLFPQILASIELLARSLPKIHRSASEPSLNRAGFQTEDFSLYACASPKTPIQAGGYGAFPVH

B1: braftide (peptide)
peptide: TRHVNILLFM
IC50: 280 nM
